This note sets out measurements from the DeepSol protein solubility set.

A short description of this data set: soluble on expression in E. coli; label from the status in PepcDB or PDB records.
As to “MGSDKIHHHHHHQEKVSSMSEKSAPGSIQQPTRAQQLMGDIDPKLAELTDKVLFGDVWERKQLSKRDRSLVTVAALISLNRPDQLRSHMALALQNGVTREELVETITQLAFYTGWPNAVSAVPVARDVFRAADAAASHPDQGAQAQDDRTITVIHAGSQPSTHGSADHFTGSVQVDSRFQAQAPARSGGGIVTFEPGARTAWHTHPLGQTLIVTAGIGLVQQWGGPVQVIKPGDIVWIPPGVKHWHGATRTSGMTHIAIAEALDGKSVDWMELVMDAQYLGGQPR”, the “soluble on expression in E. coli” value is recorded as “not soluble”.

Regarding “GPGSMPPKNAVKRNQKSSKQRDNFDEAAIDALIMAIEGKAKKGTTKSQLKQKEDKSLSRANGQSYVLSEQMRNALLAQMQQPTAQEEQYVNVPVPLTGEEKGWQEVAPNRYIRYEQFGGSDAEMNFIVNLFTAELTEPYSSFTYQYFVFGWPDLCITAFGVESETKPDNSVVGEKVGAVVSRVTRKGAGMPLRGYVAMFAVVPKFRGYRLGSRLVSLTVELMRAKGCDEVYLETPTSNVRALGLYLNLGFAKTKYLPRYYLDHSDARASEAVAEGCHPKVCPRDCFHGWCGEGVAGTLRVCLE”, the “soluble on expression in E. coli” value is “soluble”.

Consider “FMQDFEDIQKDIEQLDIKCAHEQMNIQKQYDEKKKPLFEKRDEIIQKIPGFWANTLRKHPALSDIVPEDIDILNHLVKLDLKDNMDNNGSYKITFIFGEKAKEFMEPLTLVKHVTFDNNQEKVVECTRIKWKEGKNPIAAVTHNRSDLDNEIPKWSIFEWFTTDELQDKPDVGELIRREIWHNPLSYYLGLEE”, for which the “soluble on expression in E. coli” value was “soluble”.

As to “MQASQFSAQVLDWYDKYGRKTLPWQIDKTPYKVWLSEVMLQQTQVATVIPYFERFMARFPTVTDLANAPLDEVLHLWTGLGYYARARNLHKAAQQVATLHGGKFPETFEEVAALPGVGRSTAGAILSLSLGKHFPILDGNVARVLARCYAVSGWPGKKEVENKLWSLSEQVTPAVGVERFNQAMMDLGAMICTRSKPKCSLCPLQNGCIAAANNSWALYPGKKPK”, the “soluble on expression in E. coli” value was “soluble”.

Regarding “NLMYYGTFIIDNPVKKGAEKFIAQCREISVPVFVATGDTTKAAENIAKVLCPANAGKIVTLRADQIDEKGIEFLNEENYPSDSTVIFSGINEAILNRFQKLMGREGAKRPVVIFAEMSTEGKGVLARYLKDHHYFVVANGDGTNDVMMMKNSNVVIAHHSDDGTFAPGVDGLTN”, the “soluble on expression in E. coli” value is on record as “not soluble”.

With “QIYSARYSGVDVYEFIHSTGSIMKRKKDDWVNATHILKAANFAKAKRTRILEKEVLKETHEKVQGGFGKYQGTWVPLNIAKQLAEKFSVYDQLKPLFDF”, the “soluble on expression in E. coli” value is “soluble”.

With “MAVREYQKKRRRERIFRAAMELFRNRGFQETTATEIAKAAHVSRGTFFNYYPYKEAVLLDYGSQLLAGLREEVRRLLAQGREPVEVLRHLFRVLAEGTAREKDLLLPMFYELLNPDPVRARAAFEALPLGDLIAEILKPLREQGVLRQDFSLERMGRTLADLYFLSALRWAAYTPGRDLAEELEKNLRLLLEGMLVREAPAPGGL”, the “soluble on expression in E. coli” value was “not soluble”.

In the case of “AMLPHGLIVSCQALPDEPLHSSFIMSKMALAAYEGGAVGIRANTKEDILAIKETVDLPVIGIVKRDYDHSDVFITATSKEVDELIESQCEVIALDATLQQRPKETLDELVSYIRTHAPNVEIMADIATVEEAKNAARLGFDYIGTTLHGYTSYTQGQLLYQNDFQFLKDVLQSVDAKVIAEGNVITPDMYKRVMDLGVHCSVVGGAITRPKEITKRFVQVMED”, the “soluble on expression in E. coli” value is “soluble”.

Take “MQHSLGLIEVSGMSLAITVADVMAKTAQIRLIGVERTIGSGWMLVKIAGDVAAVRTALSAGEETARAHQGFVACTTIARPAKGTGELVSTTKPPRAEPVQKITVLPAVALTASAAHTTTGPESVQEDPDAEKAVPPIREAVEGSTGNIIQVDAINDPVETAREISKPNASAKSPPAEYGEKQSVATVKAFPVMGDIATDLDIPTASARSVAVAQQVKPGISLHQFHYQEKPDDETADAGSQQTGETKQAVAISAKLLVTCKICGDPSCPRHKGQPRSRCIHNQKSVLR”: the “soluble on expression in E. coli” value is reported as “not soluble”.

Turning to “MEPIDIARLEEAVVSFYRSNSQNQAITHEWLTDAEASPQAWQFSWQLMQLGKSQEVQFFGAITLHSKLMKHWHEVPPENREELKQKILESIVRFAGGPKIVLNRLCISLGAYIVHMLGEWPGAIEEVINTFQNQRMPNVSADVQLWIMLEVLTAIPEEAQVIHTSVKRVVLRAEIAKRVQLVIHTVERYLKLQMNRVWDAEAYSNMNRAVKCVGTWIKNIGYTIEGCVTITAVLLEVVHKCYWPCIHAGDGCMTADENELAESCLKTMVNIIIQPDCHNYPKTAFVLIKMFLDSLSEITKTEWKRENDNEDIIVHIYMLFVSSVERHSTLLLSGITSADPELSILVHRIVQEILHCTDKPGIYPVEESCSTMALAFWYMLQDEVFAMSNDEQKHKCWEYIKPLYAHLTRILVRKSEQPDEKSLAKWSSDDLECFRCYRQDISDTFMYCYDVLNDYILEILAAMLDEAIADLQRHPTHWTKLEACIYSFQSVAEHFGGEEKRQIPRLMRVLAEIPYEKLNVKLLGTALETMGSYCNWLMENPAYIPPAINLLVRGLNSSMSAQATLGLKELCRDCQLQLKPYADPLLNACHASLNTGRMKNSDSVRLMFSIGKLMSLLRPEEIPKYLDIIVSPCFEELQAICQADSKTPAARIRTIFRLNMISTLFSSLNTDVDEQATDQPIVQPVLLVMQRTMPIFKRIAEMWVEEIDVLEAACSAMKHAITNLRSSFQPMLQDLCLFIVASFQTRCCAPTLEISKTAIVMFFKDEGCKPLMQQLLREFIQHSFKLFESTPEQNFSNISDTMETFFGCLTQIIKKIPQVLEDKTLAYDRLVFYAQRGMTLPESGAIRNSIQFLTHFVMQSRNHAHVTEVVLATGEQTLYTAMMCVGYLTPRSQVDKFADILLAMNRKYAAEMAVWMKSLMSTPNFPTQLITDADKTRYTALIIKEKVNKRLLQQHLSEMAMKTRGLTEKFQ”, the “soluble on expression in E. coli” value is “soluble”.

As to “MSKSPDAFRTISEVAEWLGVQAHVLRFWESKFNQVKPVKRAGGRRYYRPADMQLLGGIKKLLHDDGMTIKGVQKLLREQGVAHVAEQSQD”, the “soluble on expression in E. coli” value is “not soluble”.

Regarding “MERFLRLGGLGGNLGTFGANPQDSNQVDTSETVYISSLALLKMLKHGRAGVPMEVMGLMLGEFVDDYTVNVIDVFAMPQSGTGVSVEAVDPVFQAKMLDMLKQTGRPEMVVGWYHSHPGFGCWLSGVDINTQQSFEALSDRAVAVVVDPIQSVKGKVVIDAFRTINPQSMALNQEPRQTTSNLGHLQKPSIQALIHGLNRHYYSIPIAYRTHDLEQKMLLNLNKLSWMDAVSVENYSKCGEQNKEHLKAMLKLAKNYKKALEDEKNMTDQELAIKNVGKMDPKRHIADEVSKMLNDNIVQSLAGMMATTSLQ”, the “soluble on expression in E. coli” value was “not soluble”.

For “MKGIARLVTSLSRIGGRKVVSGTSTVTSSSSSSLLLSRRSLFISATNLLNSRTKDSALPSLNSSLLAQKWNFLGGQRRTMFIQTQSTPNPSSLMFYPGKPVMEVGSADFPNVRSALGSPLAKSIYSIDGVVRVFFGSDFVTVTKSDDVSWDILKPEIFAAVMDFYSSGQPLFLDSQAAAAKDTAISEDDSETVAMIKELLETRIRPAVQDDGGDIEYCGFDPESGIVKLRMQGACSGCPSSSVTLKSGIENMLMHYVSEVKGVEQEFDGEDEEGTLSGEMRVE”, the “soluble on expression in E. coli” value is reported as “not soluble”.

For the sequence “GSHMEKRTPHTRLSQVKKLVNAGQVRTTRSALLNADELGLDFDGMCNVIIGLSESDFYKSMTTYSDHTIWQDVYRPRLVTGQVYLKITVIHDVLIVSFKEK”, the “soluble on expression in E. coli” value was “soluble”.

On to “MMFDRETQVVDCRCGGGLGKGGGLAQRGTLSEAGRADVVAVAMSPGQRHITKPVCEITYGMRKENIQVSVLVLYSGSGIPESGMRTGSFVLSPVEVAQIEMHKLAVIHLGNIKDHVIRKTREILSQVDIPAIIVSQIPVDFEDFAEAGIKTRLVMPRDENIRTKGIVMDMVSGVTRGDSCPRDKLNLIVKYVKTTLDQLKDHKGVALEHHHHHH”, for which the “soluble on expression in E. coli” value was “soluble”.

As for “MLTQEQIDIIREGPDYFLESIWFRIGQLYGLSPGQIDHDSFEERKNDLFFLLGKLLDEGQIKIGNHKGNFISGPTPALVEMFRSSFPDSDEKAQAIWFITECPGGIVWVLKGQGEKGQDVYKWWLFKDEK”, the “soluble on expression in E. coli” value was “not soluble”.

“GFNYSITGNIATFKNKITELPDNVRSVYGGNGMLDDIIGRPRNSIYGYVADGIFKTQEEVDNSPQQAGKGLGRIRYKDLDGDGRITQDYDRTWIGVSDPDFTYGLNLQASYKNVDLALFFQGVHGGDVWDSWIEYSDFWNIQDVNNTNHLKGVFNAWSPQNPDSNIPALSTRNTNDEKRTSTYFLKDGSYLKLRTIELGYTFPESMVKKAMISRLRAYVSANNVFTIKKWWDSNRFSGPDPEIRDFGYVIPFTATVGVNITF”: the “soluble on expression in E. coli” value is “not soluble”.

Consider “SLSIDEIKQLIELIDESTLDEFELETKDSKILLKKHKTVVATAVQEAPIAVTPAQTAPVTPAAAPQVEASTAEDVNLEVITSPMVGTFYASASPEDANFVSVGSKVSAQSVVCIVEAMKLFNEITADIDGEIAEILVSSGELVEFGQPLFKVRKK”, for which the “soluble on expression in E. coli” value is listed as “soluble”.

“MSRYCSECGKARKACLCPSIVALESAVELIILQHPTEQKRPLGTARILSLSLANCRLLVGEDFREHDELNQLLAEPDVDYYVLYPNEHAQECTKISLTTARKTRVILLDGTWKKAYKMWQINTQLHDLPSLHLPDECVGHYRIRKAPDDTALSTVEAGYHLLQQWQPERDFSPLLKVFDAMIQYQIDQMPEGVFERNYRQLEHHHHHH”: the “soluble on expression in E. coli” value is listed as “not soluble”.

“RKDMEMNINFNMSYQKNKLLSLSGEYNGMHMTASDITPIGSLYGAGQNGGDNNVVYQIVGQPLGVFYLPHCKGLKENELGGYSYDIEDLNDDGEIDFSDGGDRYIAGQATPKVTIGSNISFRYKSFDIAMQINGAFGHKIFNGTGLAYTNMSIFPDYNVLKGAPEKNIIDQNVSDYWLEKGDYVNIEHITIGYNIPMKSKAVKSLRLSAGISNLATITGYSGLTPMINSYVVSNTLGIDDKRTYPLYRTYSLGLSIQF”: the “soluble on expression in E. coli” value is “not soluble”.

With “GPGSMEPKSVEEYSQQNYWIGRYEVEEQHDWFLSVRQPTIAALCDELLKVFQQRERLHSADGNVEGDQPALRVLHLGTGNSSLCMDLYEAVRERQLPFALHQVAMDYAPNVIERMQSKYSPDILPNAQWIVGDVRKLEEFREYGPFDAVIEKGTMDAIEADKNRPEMKGDVEAMLHGVDTLLKHAKGYGAFLQVTWVAPHLRLPYTKGDAFAWGDQVRYSLLGESDIYRLFVYTVRE”, the “soluble on expression in E. coli” value was “soluble”.

Take “MFPSFITHIQSPNSHHHYSSPSFPFSSDFLESFDESFLINQFLLQQQDVAANVVESPWKFCKKLELKKKNEKCVDGSTSQEVQWRRTVKKRDRHSKICTAQGPRDRRMRLSLQIARKFFDLQDMLGFDKASKTIEWLFSKSKTSIKQLKERVAASEGGGKDEHLQVDEKEKDETLKLRVSKRRTKTMESSFKTKESRERARKRARERTMAKMKMRLFETSETISDPHQETREIKITNGVQLLEKENKEQEWSNTNDVHMVEYQMDSVSIIEKFLGLTSDSSSSSIFGDSEECYTSLSSVRGTISAAGNSNVLTKNPN”: the “soluble on expression in E. coli” value is “not soluble”.

As to “MIEFFLPMDKIPTTTHQQKKVTVINGKPHFYEPESLKNARDKFTSLLAQHVPPSKLDGPIRLTVKWLFPKIKGSTNGQYKTTKPDTDNLQKLLKDCMTELGFWNDDAQVASEIIEKFWADTVGIYVKVEEL”, the “soluble on expression in E. coli” value is “not soluble”.

“MSRLGYVMTKASAKNFKVYINGSARGYRNIIINGAKSWNPSPYLNTVTMGNDVKPNFTVSSSNTNKGSVLAVCNTTYYKSNKLIVKNEITLYKGFRSLSNNHKIETVAHEFGHGFGLGHVKTRNAIMLDKGFINKTKPQKDDFNGIKALYKLEHHHHHH”: the “soluble on expression in E. coli” value was “soluble”.
